Results from paper PMC10192418 (2023).
Ends that are not written are not given here. FAM = 5(6)-carboxyfluorescein (N-terminal)

B1: B-RCAL (BÜHLMANN recombinant calprotectin; His6-linker-S100A9-linker-S100A8) (complex)
chain: MTCKMSQLERNIETIINTFHQYSVKLGHPDTLNQGEFKELVRKDLQNFLKKENKNEKVIEHIMEDLDTNADKQLSFEEFIMLMARLTWASHEKMHEGDEGPGHHHKPGLGEGTPLEVLFQGPMLTELEKALNSIIDVYHKYSLIKGNFHAVYRDDLKKLLETECPQYIRKKGADVWFKELDINTDGAVNFQEFLILVIKMGVAAHKKSHEESHKE

Columns and labels:
[1] = target: B1; assay: SPR
Peptide 2 [2] = assay: SPR
Peptide 4 [3] = assay: SPR
Peptide 1 [4] = assay: SPR
Peptide 3 = assay: SPR
Peptide 7 [5] = assay: SPR
Peptide 6 [6] = assay: SPR
Peptide 2 [7] = assay: FP; Ca2+
Peptide 4 [8] = assay: FP; Ca2+
Peptide 1 [9] = assay: FP; Ca2+
Peptide 5 = assay: FP; Ca2+
Peptide 7 [10] = assay: FP; Ca2+
Peptide 6 [11] = assay: FP; Ca2+
Peptide 13 = assay: FP; calcium (tetramer)
Peptide 12 = assay: FP; calcium (tetramer)
Peptide 11 = assay: FP; calcium (tetramer)
Peptide 10 = assay: FP; calcium (tetramer)
Peptide 9 = assay: FP; calcium (tetramer)
Peptide 8 = assay: FP; calcium (tetramer)

In the case of {FAM}-RSPESVAFPMFQSHWYSG [linear peptide 3], the Kd [1] is reported as 46 nM.

Binder Fluorescein-RCPECVAFPMFQCHWYCG (not fully specified (bridges); also: disulfide pairing not given here) [peptide 3 isomer 2] has a Kd [1] of 500 nM.

With B1 the Kd (Peptide 2 [2]) was 400 nM, the Kd (Peptide 4 [3]) was 1100 nM and the Kd (Peptide 1 [4]) was 1220 nM. It also gave a Kd (Peptide 3) of 340 nM, a Kd (Peptide 7 [5]) of 840 nM and a Kd (Peptide 6 [6]) of 310 nM. It also gave a Kd (Peptide 2 [7]) of 22 nM, a Kd (Peptide 4 [8]) of 34 nM and a Kd (Peptide 1 [9]) of 38 nM. It also gave a Kd (Peptide 5) of 55 nM, a Kd (Peptide 7 [10]) of 25 nM and a Kd (Peptide 6 [11]) of 10 nM. It also gave a Kd (Peptide 13) of 154000 nM, a Kd (Peptide 12) of 37000 nM and a Kd (Peptide 11) of 42000 nM. For the same binder, the Kd (Peptide 10) was 190000 nM, the Kd (Peptide 9) was 29000 nM and the Kd (Peptide 8) was 89 nM.

In the case of Fluorescein-RCPECVAFPMFQCHWYCG (not fully specified (bridges); also: disulfide pairing not given here) [peptide 3 isomer 3], the Kd [1] is reported as 270 nM.
